# Experimental data from the supplement of paper PMC10065799, “High-throughput profiling of sequence recognition by tyrosine kinases and SH2 domains using bacterial peptide display” (eLife, 2023).
# Key:
# [1] = target: SHP2-C SH2; experiment: SH2 binding enrichment of the phosphorylated peptide, bacterial display (enrichment ratio); higher = better substrate or ligand; peptides without Tyr show the background
# [2] = target: c-Src SH2; experiment: as above
# [3] = target: Grb2 SH2 (UniProt P62993); experiment: as above
# [4] = target: Hck (UniProt P08631); experiment: phosphorylation enrichment, bacterial display (enrichment ratio); higher = better substrate or ligand; peptides without Tyr show the background
# [5] = target: FGFR1 (UniProt P11362); experiment: as above
# [6] = system: Fer (mouse); experiment: as above
# [7] = target: EPHB2 (UniProt P29323); experiment: as above
# [8] = target: MERTK (UniProt Q12866); experiment: as above
# [9] = system: AncSZ; experiment: as above
# [10] = target: Jak2 (UniProt O60674); experiment: as above
# [11] = target: FGFR3 (UniProt P22607); experiment: as above
# [12] = target: Fes (UniProt P07332); experiment: as above
# [13] = target: EPHB1 (UniProt P54762); experiment: as above
# [14] = target: Fyn (UniProt P06241); experiment: as above
# [15] = system: c-Abl (mouse); experiment: as above
# [16] = system: c-Src; experiment: as above
# 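Throughout, for SH2 binding enrichment of the phosphorylated peptide, bacterial display: peptide library displayed on the E. coli surface as eCPX fusions, selected cells deep-sequenced, score is each peptide's frequency after selection divided by its frequency in the input.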
# 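Throughout, for phosphorylation enrichment, bacterial display: 11-residue human phosphosite peptides and single-mutation variants displayed on the E. coli surface, counted by deep sequencing, each peptide's frequency after selection divided by its frequency in the unselected input library; frequency after pTyr selection over input frequency; kinase dosed for 20-30% of maximal phosphorylation in three min.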
# Sequence of Fes (P07332 whole entry, looked up): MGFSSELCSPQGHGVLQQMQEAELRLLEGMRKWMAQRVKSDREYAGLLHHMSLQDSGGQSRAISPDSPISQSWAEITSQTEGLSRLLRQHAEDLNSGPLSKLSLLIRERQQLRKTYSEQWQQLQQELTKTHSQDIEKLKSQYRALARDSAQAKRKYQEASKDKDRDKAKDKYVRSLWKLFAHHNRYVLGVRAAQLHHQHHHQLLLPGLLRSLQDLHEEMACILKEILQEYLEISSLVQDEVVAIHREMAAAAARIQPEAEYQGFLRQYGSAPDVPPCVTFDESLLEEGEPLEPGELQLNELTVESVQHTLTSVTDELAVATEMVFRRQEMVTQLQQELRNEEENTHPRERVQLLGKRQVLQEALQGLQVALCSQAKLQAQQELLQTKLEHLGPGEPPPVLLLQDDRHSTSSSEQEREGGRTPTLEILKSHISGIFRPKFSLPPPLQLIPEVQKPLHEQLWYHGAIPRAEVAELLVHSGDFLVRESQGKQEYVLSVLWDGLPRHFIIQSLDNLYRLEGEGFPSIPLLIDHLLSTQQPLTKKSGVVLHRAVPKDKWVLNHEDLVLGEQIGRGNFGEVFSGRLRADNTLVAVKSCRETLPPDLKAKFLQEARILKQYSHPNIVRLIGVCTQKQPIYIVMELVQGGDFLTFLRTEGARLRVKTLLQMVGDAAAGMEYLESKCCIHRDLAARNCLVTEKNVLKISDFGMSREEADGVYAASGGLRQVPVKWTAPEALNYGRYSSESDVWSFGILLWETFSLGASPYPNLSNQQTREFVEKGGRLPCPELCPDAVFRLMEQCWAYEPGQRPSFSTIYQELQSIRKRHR
# Sequence of FGFR1 (P11362 whole entry, looked up): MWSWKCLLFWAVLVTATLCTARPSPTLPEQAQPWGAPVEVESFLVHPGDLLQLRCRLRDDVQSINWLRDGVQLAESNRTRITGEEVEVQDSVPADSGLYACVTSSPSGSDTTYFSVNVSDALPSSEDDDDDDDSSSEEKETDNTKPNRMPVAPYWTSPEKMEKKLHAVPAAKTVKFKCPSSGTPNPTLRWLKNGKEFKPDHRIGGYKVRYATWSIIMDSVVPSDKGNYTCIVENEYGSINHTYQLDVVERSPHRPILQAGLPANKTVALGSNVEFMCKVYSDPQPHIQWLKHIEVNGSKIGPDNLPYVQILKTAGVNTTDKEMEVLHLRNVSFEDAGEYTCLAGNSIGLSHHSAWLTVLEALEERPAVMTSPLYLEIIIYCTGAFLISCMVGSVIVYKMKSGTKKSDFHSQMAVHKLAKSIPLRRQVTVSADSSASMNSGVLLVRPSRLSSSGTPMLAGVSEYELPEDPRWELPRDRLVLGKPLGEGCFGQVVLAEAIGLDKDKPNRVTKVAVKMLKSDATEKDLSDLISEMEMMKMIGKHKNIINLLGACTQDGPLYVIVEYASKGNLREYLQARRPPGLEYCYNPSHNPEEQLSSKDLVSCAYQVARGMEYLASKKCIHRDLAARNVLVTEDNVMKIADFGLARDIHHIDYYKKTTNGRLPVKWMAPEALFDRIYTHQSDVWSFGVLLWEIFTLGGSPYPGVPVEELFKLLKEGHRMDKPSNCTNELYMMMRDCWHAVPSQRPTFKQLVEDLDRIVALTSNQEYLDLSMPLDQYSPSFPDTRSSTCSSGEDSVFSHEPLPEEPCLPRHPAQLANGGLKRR
# Sequence of FGFR3 (P22607 whole entry, looked up): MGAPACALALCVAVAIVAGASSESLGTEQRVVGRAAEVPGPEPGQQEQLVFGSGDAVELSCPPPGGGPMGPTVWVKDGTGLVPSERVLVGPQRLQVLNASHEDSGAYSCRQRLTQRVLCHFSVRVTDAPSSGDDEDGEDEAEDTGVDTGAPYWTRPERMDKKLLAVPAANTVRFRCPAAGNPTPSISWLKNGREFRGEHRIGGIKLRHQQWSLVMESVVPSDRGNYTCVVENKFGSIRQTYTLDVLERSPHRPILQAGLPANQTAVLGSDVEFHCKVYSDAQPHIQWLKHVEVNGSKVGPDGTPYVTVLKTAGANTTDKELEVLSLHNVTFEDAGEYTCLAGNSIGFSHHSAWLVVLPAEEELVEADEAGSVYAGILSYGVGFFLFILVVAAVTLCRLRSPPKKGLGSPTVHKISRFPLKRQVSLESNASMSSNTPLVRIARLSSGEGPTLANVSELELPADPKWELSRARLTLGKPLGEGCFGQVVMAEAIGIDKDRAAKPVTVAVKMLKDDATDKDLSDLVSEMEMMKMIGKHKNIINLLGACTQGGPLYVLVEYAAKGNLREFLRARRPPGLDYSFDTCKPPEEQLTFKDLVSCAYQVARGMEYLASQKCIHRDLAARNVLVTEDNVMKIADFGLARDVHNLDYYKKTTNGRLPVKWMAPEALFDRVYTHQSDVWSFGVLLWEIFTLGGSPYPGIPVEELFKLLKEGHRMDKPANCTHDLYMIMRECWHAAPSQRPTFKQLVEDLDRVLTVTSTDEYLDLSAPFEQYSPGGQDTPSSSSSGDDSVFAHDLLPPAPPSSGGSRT
# Sequence of EPHB2 (P29323 whole entry, looked up): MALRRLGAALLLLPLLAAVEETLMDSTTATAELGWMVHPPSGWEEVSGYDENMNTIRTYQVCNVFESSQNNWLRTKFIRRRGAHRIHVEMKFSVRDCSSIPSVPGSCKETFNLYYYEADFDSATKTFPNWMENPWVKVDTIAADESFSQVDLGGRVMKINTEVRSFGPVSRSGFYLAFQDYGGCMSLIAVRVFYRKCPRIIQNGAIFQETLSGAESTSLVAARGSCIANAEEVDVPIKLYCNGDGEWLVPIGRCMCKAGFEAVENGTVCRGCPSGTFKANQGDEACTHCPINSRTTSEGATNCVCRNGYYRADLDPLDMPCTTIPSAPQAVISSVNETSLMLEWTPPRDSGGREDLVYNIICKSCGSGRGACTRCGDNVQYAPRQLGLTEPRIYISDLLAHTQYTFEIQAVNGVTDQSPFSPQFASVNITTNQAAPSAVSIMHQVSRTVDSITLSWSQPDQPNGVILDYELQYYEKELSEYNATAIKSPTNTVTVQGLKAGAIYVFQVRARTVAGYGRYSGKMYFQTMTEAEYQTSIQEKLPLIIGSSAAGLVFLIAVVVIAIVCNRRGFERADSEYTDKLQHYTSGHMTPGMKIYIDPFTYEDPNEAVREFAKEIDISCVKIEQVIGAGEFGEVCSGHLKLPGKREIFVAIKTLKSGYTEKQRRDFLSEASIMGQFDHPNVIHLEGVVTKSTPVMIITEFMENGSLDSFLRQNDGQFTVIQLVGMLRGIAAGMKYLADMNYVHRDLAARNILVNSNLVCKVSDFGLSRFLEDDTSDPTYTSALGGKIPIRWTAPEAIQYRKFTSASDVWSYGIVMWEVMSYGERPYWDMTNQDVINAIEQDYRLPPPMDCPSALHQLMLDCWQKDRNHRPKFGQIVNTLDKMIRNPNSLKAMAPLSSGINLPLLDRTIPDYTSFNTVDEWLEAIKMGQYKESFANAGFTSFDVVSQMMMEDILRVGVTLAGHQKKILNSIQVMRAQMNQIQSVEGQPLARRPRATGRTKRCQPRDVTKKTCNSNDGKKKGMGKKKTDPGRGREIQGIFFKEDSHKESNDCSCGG
# Sequence of Hck (P08631 whole entry, looked up): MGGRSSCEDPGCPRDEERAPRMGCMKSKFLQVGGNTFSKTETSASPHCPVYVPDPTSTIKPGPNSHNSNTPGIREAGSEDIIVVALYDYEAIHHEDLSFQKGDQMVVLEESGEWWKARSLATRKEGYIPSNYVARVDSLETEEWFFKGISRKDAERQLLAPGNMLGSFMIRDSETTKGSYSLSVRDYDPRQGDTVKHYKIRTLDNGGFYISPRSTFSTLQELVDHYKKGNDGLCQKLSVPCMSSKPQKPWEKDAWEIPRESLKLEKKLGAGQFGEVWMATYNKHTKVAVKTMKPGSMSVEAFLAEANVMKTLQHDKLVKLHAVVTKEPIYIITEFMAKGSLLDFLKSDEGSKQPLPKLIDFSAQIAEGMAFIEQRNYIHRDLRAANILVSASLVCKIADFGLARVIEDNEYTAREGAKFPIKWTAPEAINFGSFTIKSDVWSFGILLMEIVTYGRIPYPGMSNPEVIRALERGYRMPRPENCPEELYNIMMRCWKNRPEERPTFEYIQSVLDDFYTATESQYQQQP
# Sequence of MERTK (Q12866 whole entry, looked up): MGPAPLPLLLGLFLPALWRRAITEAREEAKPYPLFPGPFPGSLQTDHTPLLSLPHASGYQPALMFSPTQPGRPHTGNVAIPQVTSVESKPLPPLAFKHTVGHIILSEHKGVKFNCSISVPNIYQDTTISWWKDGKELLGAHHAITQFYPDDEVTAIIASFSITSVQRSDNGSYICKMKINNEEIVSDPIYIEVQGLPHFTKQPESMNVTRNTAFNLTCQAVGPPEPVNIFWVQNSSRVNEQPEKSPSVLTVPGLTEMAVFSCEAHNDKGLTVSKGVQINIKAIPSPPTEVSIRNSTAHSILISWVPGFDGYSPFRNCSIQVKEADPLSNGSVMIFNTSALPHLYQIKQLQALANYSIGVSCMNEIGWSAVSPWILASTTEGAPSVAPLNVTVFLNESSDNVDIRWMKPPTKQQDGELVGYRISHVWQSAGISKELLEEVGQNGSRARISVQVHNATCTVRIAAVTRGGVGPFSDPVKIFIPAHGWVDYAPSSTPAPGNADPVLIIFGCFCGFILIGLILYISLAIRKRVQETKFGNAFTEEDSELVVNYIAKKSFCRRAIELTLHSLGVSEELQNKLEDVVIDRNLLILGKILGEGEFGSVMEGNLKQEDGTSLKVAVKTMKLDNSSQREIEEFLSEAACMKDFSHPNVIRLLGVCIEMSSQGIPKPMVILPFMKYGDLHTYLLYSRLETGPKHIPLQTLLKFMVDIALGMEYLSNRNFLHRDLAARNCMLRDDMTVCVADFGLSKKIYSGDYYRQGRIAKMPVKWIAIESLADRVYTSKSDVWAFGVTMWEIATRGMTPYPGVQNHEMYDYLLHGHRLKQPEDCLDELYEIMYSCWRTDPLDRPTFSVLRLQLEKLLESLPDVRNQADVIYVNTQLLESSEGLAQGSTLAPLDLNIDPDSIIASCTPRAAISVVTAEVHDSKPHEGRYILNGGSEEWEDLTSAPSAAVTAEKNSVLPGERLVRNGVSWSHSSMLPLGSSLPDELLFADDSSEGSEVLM
Sequence,SH2 binding enrichment [1],SH2 binding enrichment [2],SH2 binding enrichment [3],phosphorylation enrichment [4],phosphorylation enrichment [5],phosphorylation enrichment [6],phosphorylation enrichment [7],phosphorylation enrichment [8],phosphorylation enrichment [9],phosphorylation enrichment [10],phosphorylation enrichment [11],phosphorylation enrichment [12],phosphorylation enrichment [13],phosphorylation enrichment [14],phosphorylation enrichment [15],phosphorylation enrichment [16]
TVLGEYASPKG [CYP24A1_Y407_L409S],0.793,0.596,1.02,0.578,0.405,0.371,0.612,0.513,0.733,0.561,0.482,0.619,0.508,0.498,3.4,0.468
VASSLYDILAR [GLB1_Y294],0.67,0.78,0.567,8.2,0.37,1.96,1.01,8.38,1.02,1.24,0.557,1.05,1.16,1.77,0.763,2.84
VAVTKYCKEEL [ATP7B_Y1078],0.729,0.53,0.813,0.593,0.498,0.494,0.547,0.37,0.877,0.844,0.776,0.917,0.508,0.455,0.651,0.477
VDLSKYITTIA [FAS_Y232],0.604,0.451,0.881,0.407,0.363,0.394,0.341,0.426,0.657,0.67,0.452,0.815,0.378,0.348,0.513,0.424
VDSAHYQLLET [DTX3L_Y385_K386Q],0.541,6.34,0.677,0.709,1.14,4.07,0.616,1.13,0.946,0.891,0.952,0.909,0.813,0.588,0.728,0.705
VEDQFYRVDCF [FHL1_Y208_C209R_YF],0.601,0.515,0.875,0.551,0.522,0.559,0.587,0.557,1.16,1.24,0.831,1.34,0.692,0.693,0.863,1.1
VERIGYDFIPT [CBS_Y308_G305R],0.686,3.49,0.934,0.571,0.56,0.417,0.461,0.521,0.759,0.611,0.605,0.801,0.544,0.529,0.593,0.434

# The next lines start with results.
SH2 binding enrichment [1],SH2 binding enrichment [2],SH2 binding enrichment [3],Sequence,phosphorylation enrichment [4],phosphorylation enrichment [5],phosphorylation enrichment [6],phosphorylation enrichment [7],phosphorylation enrichment [8],phosphorylation enrichment [9],phosphorylation enrichment [10],phosphorylation enrichment [11],phosphorylation enrichment [12],phosphorylation enrichment [13],phosphorylation enrichment [14],phosphorylation enrichment [15],phosphorylation enrichment [16]
0.553,0.545,0.861,TVQIMYGCDVG [HLA-A_Y123_I119V],0.567,0.539,0.611,0.773,0.444,0.945,0.955,0.917,1.22,0.676,0.575,0.737,0.47
0.648,0.573,0.828,VAMDDYLKNVV [LRRK2_Y707_M712V],0.477,0.468,0.405,0.59,0.393,0.872,0.708,0.666,0.919,0.482,0.364,0.518,0.376
0.7,0.648,0.872,VCDSNYSASRW [LRP5_Y1552_D1551N],0.508,0.509,0.513,1.85,0.426,0.719,0.618,0.626,0.864,1.62,0.483,0.507,0.396
0.624,0.458,0.76,VDESLYKTHPQ [HK1_Y417_G414E],0.656,0.644,0.572,0.706,0.553,0.904,0.811,0.699,0.989,0.513,0.592,0.9,0.541
1.27,2.09,0.803,VDTPMYATMQR [TPO_Y55_A53P],5.46,0.52,0.706,0.838,1.81,0.826,0.593,0.684,0.942,1.1,3.58,2.11,3.3
0.658,0.603,0.807,VECRVYAEDPY [PCCA_Y401],0.686,0.619,0.708,0.794,0.56,1.47,1.26,1.13,1.73,0.908,0.612,1.28,0.75
0.828,0.494,0.894,VEDDMYRKTCT [XPA_Y257_L252V],0.626,0.559,0.696,0.636,0.507,1.33,1.33,0.868,1.3,0.676,0.602,0.932,0.544
0.798,0.534,1.01,VGQRPYQPLPE [REEP3_Y170],0.36,0.47,0.336,0.424,0.406,0.617,0.505,0.525,0.649,0.38,0.375,0.547,0.393
1.06,0.473,0.977,VGSIEYLKREW [KCNMA1_Y885],0.511,0.523,0.447,0.487,0.38,0.823,0.927,0.612,0.967,0.35,0.359,0.488,0.446
0.723,0.802,1.16,VGSIKYLKREW [KCNMA1_Y885_E884K],0.446,0.412,0.465,0.505,0.311,0.68,0.61,0.431,0.754,0.56,0.395,0.482,0.38
